Source: publication PMC3798605, “Independent Pathways Can Transduce the Life-Cycle Differentiation Signal in Trypanosoma brucei” (PLoS Pathogens, 2013)
pKd: −log10 of the molar value.

Biological target: TbPTP1
Experiment: SPR
Settings: 2 mM citrate, 25°C, 10 mM HEPES, pH 7.4, 150 mM NaCl, 0.05% P20, 2 mM DTT, 20 mM MgCl2; for kon: parent: 0.0012; for koff: parent: 0.05; for pKd: parent: 42

Row | Substance | kon | koff | pKd
1 | TbPIP39 wild type D57A | 1300 M⁻¹ s⁻¹ | 0.04 s⁻¹ | 4.51
2 | TbPIP39 wild type T63A; V64A | 1100 M⁻¹ s⁻¹ | 0.03 s⁻¹ | 4.52
3 | TbPIP39 wild type DD mutant | 1200 M⁻¹ s⁻¹ | 0.05 s⁻¹ | 4.38
